Patent publication US20210038737A1 (OHIO STATE INNOVATION FOUNDATION, published 2021)
Primed or numbered codes have the meaning given here. [ ]: non-standard residue; d: D form. 1Nal = N[C@@H](Cc1cccc2ccccc12)C(=O)O; 2Nal = N[C@@H](Cc1ccc2ccccc2c1)C(=O)O; FITC′ = fluorescein isothiocyanate; Cha = N[C@@H](CC1CCCCC1)C(=O)O; Tle = CC(C)(C)[C@H](N)C(=O)O

B1: peptide 11: Ac-Arg-Arg-Phe-Trp-(D-Pro)-Cys-Thr-Arg-Tle-OH (peptide)
peptide: Ac-RRFW[dP]CTR[Tle]-OH
SMILES: CC(=O)N[C@@H](CCCNC(=N)N)C(=O)N[C@@H](CCCNC(=N)N)C(=O)N[C@@H](Cc1ccccc1)C(=O)N[C@@H](Cc1c[nH]c2ccccc12)C(=O)N1CCC[C@@H]1C(=O)N[C@@H](CS)C(=O)N[C@H](C(=O)N[C@@H](CCCNC(=N)N)C(=O)N[C@H](C(=O)O)C(C)(C)C)[C@@H](C)O
notes: Synthetic peptide; also called Compd 11; Compound 11
B2: peptide 12: Ac-Arg-Arg-Phe-Trp-(D-Cys)-Cys-Thr-Arg-Tle-OH (peptide)
peptide: Ac-RRFW[dC]CTR[Tle]-OH
modifications: cysteine pairing not given here
notes: Synthetic peptide; also called Compd 12; Compound 12
B3: peptide 3: Ac-Arg-Arg-Phe-Trp-Gln-Cys-Thr-Arg-Cha-OH (peptide)
peptide: Ac-RRFWQCTR[Cha]-OH
SMILES: CC(=O)N[C@@H](CCCNC(=N)N)C(=O)N[C@@H](CCCNC(=N)N)C(=O)N[C@@H](Cc1ccccc1)C(=O)N[C@@H](Cc1c[nH]c2ccccc12)C(=O)N[C@@H](CCC(N)=O)C(=O)N[C@@H](CS)C(=O)N[C@H](C(=O)N[C@@H](CCCNC(=N)N)C(=O)N[C@@H](CC1CCCCC1)C(=O)O)[C@@H](C)O
notes: Synthetic peptide; also called Compd 3; Compound 3
B4: peptide 7: Ac-Arg-Arg-Phe-Trp-Gln-Cys-Thr-Leu-Tle-OH (peptide)
peptide: Ac-RRFWQCTL[Tle]-OH
modifications: not fully specified; printed as Ac-Arg-Arg-Phe-Trp-Gln-Cys-Thr-Leu-Tle-OH
notes: Synthetic peptide; also called Compd 7; Compound 7
B5: peptide 13: Ac-Arg-Arg-Phe-Trp-Cys-Cys-Thr-Arg-Tle-OH (peptide)
peptide: Ac-RRFWCCTR[Tle]-OH
modifications: cysteine pairing not given here
notes: Synthetic peptide; also called Compd 13; Compound 13
B6: peptide 14: Ac-Cys-Arg-Arg-Arg-Phe-(1-Nal)-Gln-Cys-Thr-Arg-Tle-OH (peptide)
peptide: Ac-CRRRF[1Nal]QCTR[Tle]-OH
modifications: cysteine pairing not given here
notes: Synthetic peptide; assayed with DTT (reduced, linear); also called Compd 14; Compound 14
B7: peptide 15: Ac-Cys-Arg-Arg-Arg-Phe-(2-Nal)-Gln-Cys-Thr-Arg-Tle-OH (peptide)
peptide: Ac-CRRRF[2Nal]QCTR[Tle]-OH
modifications: cysteine pairing not given here
notes: Synthetic peptide; assayed with DTT (reduced, linear); also called Compd 15; Compound 15
B8: peptide 2: Ac-Arg-Arg-Phe-Trp-Gln-Cys-Thr-Arg-Ile-OH (peptide)
peptide: Ac-RRFWQCTRI-OH
notes: Synthetic peptide; also called Compd 2; Compound 2
B9: peptide 6: FITC-Cys-Arg-Arg-Arg-Phe-Trp-Gln-Cys-Thr-Arg-Tle-OH (peptide)
peptide: {FITC′}-CRRRFWQCTR[Tle]-OH
modifications: not fully specified; printed as FITC-Cys-Arg-Arg-Arg-Phe-Trp-Gln-Cys-Thr-Arg-Tle-OH; cysteine pairing not given here
notes: Synthetic labeled peptide; assayed with 2 mM TCEP (reduced, linear); also called Compd 6; Compound 6

How the values were obtained:
[1] = target: T1, CAL PDZ domain (CALP5-His) (UniProt Q9HD26 288-371); test: FP competition, condition A: probe peptide 26 (50 nM) with 100 nM CALP5-His; competitor titrated
[2] = target: T1, CAL PDZ domain (CALP5-His); test: FP competition, condition B: probe FAM-…-OH (100 nM) with 500 nM CALP5-His; competitor titrated
Procedure: Serial dilutions of each competitor peptide were prepared in PBS and the incubation solution was added to each. The combined solutions were gently mixed for 1 h at RT after which 20 uL sample was pipetted into 384-well black-on-black microplates and fluorescence polarization was measured using a TECAN Infinite M1000 plate reader. Data was processed to determine IC₅₀ using GraphPad PRISM ver. 6.0.

[3] = target: T1, CAL PDZ domain (CALP5-His); test: direct FP, condition C: 50 nM labeled peptide, CALP5-His titrated
Procedure: Condition C (denoted with superscript ^c): 50 nM labeled peptide was incubated with 2 mM TCEP in PBS at pH 7.4 containing 0.01% Triton-X100. CALP5-His was serially diluted in PBS containing 0.01% Triton-X100 to which was then added the peptide and TCEP solution. This solution was mixed for 1 h at RT then 20 uL was pipetted into 384-well microplates and fluorescence polarization was measured using a TECAN Infinite M1000 plate reader. KD values were calculated using KaleidaGraph v. 3.6 using the equation: […]

| Binder | IC50 [1] [µM] | also measured |
| --- | --- | --- |
| B1 | 7.39 |  |
| B2 | 10.3 |  |
| B3 | 7.88 |  |
| B4 | 2.02 |  |
| B5 | 8.01 |  |
| B6 |  | IC50 [2]: 1.77 µM |
| B7 |  | IC50 [2]: 1.49 µM |
| B8 | 3.69 |  |
| B9 |  | Kd [3]: 0.996 µM |
